Target: Wisteria floribunda agglutinin (Wisteria floribunda)
Experiment: automated chemiluminescent enzyme immunoassay (CLEIA, HISCL); IgA1 standards captured on WFA-conjugated magnetic beads, detected with alkaline-phosphatase-labelled anti-IgA1 mAb; 42 °C

CLEIA count, fold over nIgA1 not treated with sialidase: 700 fold
Substance: polymeric IgA1 standard cross linked with glutaraldehyde, with sialidase digestion
